According to patent publication US20230250186A1 (published 2023):
Changes are numbered by the printed parent chain.

What was measured:
[1] = molecular target: BSA (BOVOGEN) (UniProt P02769 25-607); assay: ELISA on coated protein, anti-human IgG HRP
Method: Various proteins, such as milk (Beijing Bomed Biotechnology Co., Ltd.), BSA (BOVOGEN), CD19 (Beijing Yiqiao Shenzhou Biotechnology Co., Ltd.), TROP2 (Beijing Yiqiao Shenzhou Biotechnology Co., Ltd.), CD47 (Beijing Magpel Biotech Technology Co., Ltd.), CD38 (Beijing Yiqiao Shenzhou Biotechnology Co., Ltd.), Gas6 (R&D) and AXL (ACRO Biosystems) were respectively used to coat ELISA strips at 1 mg/ml at 4° C. overnight. After washing with PBST, 10% fetal bovine serum was added and blocked at 37° C. for 1 hour. […] After washing with PBST, horseradish peroxidase-labeled goat anti-human IgG HRP secondary antibodies (purchased from ThermoFisher Scientific) was added and reacted at room temperature for 30 minutes. After washing the plate with PBST (5 times), the residual drops were removed as possible on the absorbent paper. 100 ml TMB (eBioscience) was added to each well and placed at room temperature (20±50) in the dark for 1-5 min. 100 ml of 2N H₂SO₄ stop solution was added to each well to quench the substrate reaction, and the OD value was read at 450 nm with a microplate reader to analyze the antibody-protein binding ability.

[2] = molecular target: T1, antigen CD38 (UniProt P28907 43-300, limits assumed); assay: BIACORE SPR, antibody captured by anti-human IgG-Fab, CD38 as mobile phase
T1 construct: Soluble antigen; also called CD38 antigen
Method: (§1) The antibody affinity was analyzed by BIACORE Biomacromolecule Interaction Apparatus (GE).

[3] = molecular target: T2, CD38-His fusion protein (UniProt P28907 43-300, limits assumed); assay: ELISA on coated CD38-His, anti-human IgG HRP
T2 construct: also called target antigen CD38-His; not shown: His tag

[4] = molecular target: T3, cynomolgus monkey CD38 extracellular protein (cynomolgus monkey, UniProt Q5VAN0 44-301); assay: ELISA on coated CD38 extracellular protein
T3 construct: extracellular domain; Purchased; also called CD38 protein molecules of cynomolgus monkeys; Cynomolgus CD38
Method: (§2) The CD38 extracellular proteins (Beijing Yiqiao Shenzhou Biotechnology Co., Ltd.) of different species of human (Human), mouse (Mouse), rat (Rat), cynomolgus monkey (Cynomolgus) and the like were respectively used to coat ELISA strips at 1 mg/ml at 40 overnight. After washing with PBST, 10% fetal bovine serum was added and blocked at 370 for 1 hour. […] After washing with PBST, horseradish peroxidase-labeled goat anti-human IgG HRP secondary antibodies (purchased from Thermo Fisher Scientific) was added and reacted at room temperature for 30 minutes. The plate was washed with PBST (5 times), and the remaining drops were removed as possible on the absorbent paper. 100 ml of TMB (purchased from eBioscience) was added to each well, and placed at room temperature (20±5° C.) in the dark for 1-5 min. 100 ml of 2N H₂SO₄ stop solution was added to each well to quench the substrate reaction, and the OD value was read at 450 nm with a microplate, to analyze the binding ability of the antibody to CD38 protein of different species.

[5] = molecular target: T4, rat CD38 extracellular protein (rat, UniProt Q64244 45-303); assay: ELISA on coated CD38 extracellular protein
T4 construct: extracellular domain; Purchased; also called CD38 protein molecules of rats
T4 sequence (looked up): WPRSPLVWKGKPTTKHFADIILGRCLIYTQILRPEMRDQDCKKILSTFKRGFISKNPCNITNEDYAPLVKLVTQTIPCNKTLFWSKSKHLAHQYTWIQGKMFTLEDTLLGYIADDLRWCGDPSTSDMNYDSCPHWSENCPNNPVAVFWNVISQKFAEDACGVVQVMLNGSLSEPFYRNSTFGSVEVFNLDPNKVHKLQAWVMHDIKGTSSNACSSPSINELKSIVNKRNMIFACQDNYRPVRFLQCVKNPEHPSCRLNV
Method: as §2

[6] = molecular target: T5, mouse CD38 extracellular protein (mouse, UniProt P56528 45-304); assay: ELISA on coated CD38 extracellular protein
T5 construct: extracellular domain; Purchased; also called CD38 protein molecules of mice
T5 sequence (looked up): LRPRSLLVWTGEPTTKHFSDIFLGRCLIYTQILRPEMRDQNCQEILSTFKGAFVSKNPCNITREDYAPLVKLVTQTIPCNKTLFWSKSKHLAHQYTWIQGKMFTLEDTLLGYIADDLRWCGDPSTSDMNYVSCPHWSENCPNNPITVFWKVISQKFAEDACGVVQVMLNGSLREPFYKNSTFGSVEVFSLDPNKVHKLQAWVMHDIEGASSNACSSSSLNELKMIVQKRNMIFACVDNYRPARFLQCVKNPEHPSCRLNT
Method: as §2

[7] = molecular target: T6, CD38 protein on the surface of Raji, Daudi, Ramos and RPMI8226 cells (human, UniProt P28907 1-300); assay: flow cytometry on Daudi cells
T6 construct: whole, on cells; also called CD38 on the surfaces of Raji cells, Daudi cells, Ramos cells and RPMI8226 cells; cell surface antigen
Method: (§3) The logarithmic growth phase cells were collected, adjusted to a cell density of 5×10⁶ cells/mL, and pre-cooled on ice. […] 100 μL of cells were taken, and an equal volume of the diluted antibody was added for reaction at 4° C. for 30 min in the dark. After the completion of reaction, the cells were washed twice. The cells were resuspended in 100 μL of the diluted PE Mouse Anti-Human IgG secondary antibodies (purchased from BD Pharmingen), and reacted at 4° C. in the dark for 30 min. After the completion of reaction, the cells were washed twice with a pre-cooled normal saline containing 2% FBS. The cells were resuspended in 400 μL of 1% paraformaldehyde. Flow cytometry (BD Calibur) was used to analyze the binding ability of antibodies to cell surface antigens.

[8] = molecular target: T6, CD38 protein on the surface of Raji, …; assay: cell-based or functional assay
[9] = molecular target: T6, CD38 protein on the surface of Raji, …; assay: flow cytometry on Ramos cells
Method: as §3

[10] = molecular target: T6, CD38 protein on the surface of Raji, …; assay: flow cytometry on Raji cells
Method: as §3

[11] = molecular target: T1, antigen CD38; assay: binding curve of FIG. 9; method not clearly stated
[12] = molecular target: T6, CD38 protein on the surface of Raji, …; assay: flow cytometry on RPMI8226 cells
Method: as §3

[13] = molecular target: T1, antigen CD38; assay: BIACORE SPR by the method of Example 4
Method: as §1

BSA (BOVOGEN), sequence (P02769 25-607 limits assumed): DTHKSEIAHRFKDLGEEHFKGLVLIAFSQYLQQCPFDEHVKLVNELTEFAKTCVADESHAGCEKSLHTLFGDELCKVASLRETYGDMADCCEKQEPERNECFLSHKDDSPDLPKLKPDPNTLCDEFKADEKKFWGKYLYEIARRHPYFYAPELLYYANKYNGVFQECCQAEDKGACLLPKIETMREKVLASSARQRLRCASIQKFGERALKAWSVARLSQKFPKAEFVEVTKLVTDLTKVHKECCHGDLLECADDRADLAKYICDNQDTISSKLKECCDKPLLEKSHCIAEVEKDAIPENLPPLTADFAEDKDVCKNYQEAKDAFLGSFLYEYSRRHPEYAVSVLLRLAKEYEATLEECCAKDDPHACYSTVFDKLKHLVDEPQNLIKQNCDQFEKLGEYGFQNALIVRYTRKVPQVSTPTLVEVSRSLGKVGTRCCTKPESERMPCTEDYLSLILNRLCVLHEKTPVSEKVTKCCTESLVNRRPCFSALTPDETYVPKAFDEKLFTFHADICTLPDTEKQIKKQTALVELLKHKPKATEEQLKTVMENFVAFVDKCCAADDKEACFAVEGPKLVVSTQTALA
T3 sequence (Q5VAN0 44-301): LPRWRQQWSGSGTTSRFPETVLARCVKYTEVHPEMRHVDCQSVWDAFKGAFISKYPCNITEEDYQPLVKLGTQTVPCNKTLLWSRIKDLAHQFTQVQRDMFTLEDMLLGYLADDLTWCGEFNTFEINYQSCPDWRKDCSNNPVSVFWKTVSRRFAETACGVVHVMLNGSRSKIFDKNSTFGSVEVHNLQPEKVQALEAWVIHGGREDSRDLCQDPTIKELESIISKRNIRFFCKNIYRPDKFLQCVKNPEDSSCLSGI

B1: humanized antibody SG003 (antibody, V domains shown)
VH: QVQLLESGGGLVQPGGSLKLSCVASGFDFSLYWMNWVRQAPGKGLEWIGKINPDSSTINYTPSLKDKFFISRDNAKNTLYLQMTKVRSEDTALYYCARLWIATGGFDYWGQGTTLTVSS
VL: EIVMTQSPASLSASLGQRATISCRASSSVSSSAFSYVHWYQQKSGQPPKLLIYLASNLESGVPARFSGSGSGTDFTLTIHPVESEDVATYYCHHSRELPFTFGSGTKLEIKR
notes: Full antibody expressed in CHO-S cells from vector pCMV-163 with a human IgG constant region; also called SG003 antibody
binding result [1]: no binding | Kd [2]: 321 pM | EC50 [3]: 0.0351 µg/mL | binding result [4]: binds | binding result [5]: no binding | binding result [6]: no binding | EC50 [7]: 0.0367 µg/mL | ADCC EC50, Daudi target cells with NK92MI-CD16a effector cells (LDH release) [8]: 0.00072 µg/mL | ADCC EC50, RPMI8226 target cells with NK92MI-CD16a effector cells (LDH release) [8]: 0.00146 µg/mL | ADCC EC50, Raji target cells with NK92MI-CD16a effector cells (LDH release) [8]: 0.00697 µg/mL | ADCC EC50, Ramos target cells with NK92MI-CD16a effector cells (LDH release) [8]: 0.00069 µg/mL | EC50 [9]: 0.0815 µg/mL | EC50 [10]: 0.0344 µg/mL

B2: SG003M2 antibody (antibody, human IgG1, kappa, V domains shown)
VH: B1 VH with N52S, D54N, T61S, W100Y, T103S
VL: B1 VL with F34Y, N57D, E59Q, F100Y, T101S
notes: also called randomly mutated antibody SG003M1-3
EC50 [11]: 0.0278 µg/mL

B3: SG003M3 antibody (antibody, human IgG1, kappa, V domains shown)
VH: B1 VH with N52S, T57S, I58L, L64V, F106Y, D107N
VL: B1 VL with S27N, S31T, L98V
notes: as for B2
EC50 [11]: 0.0061 µg/mL

B4: Daratumumab (DARZALEX) (antibody, V domains shown)
VH: EVQLLESGGGLVQPGGSLRLSCAVSGFTFNSFAMSWVRQAPGKGLEWVSAISGSGGGTYYADSVKGRFTISRDNSKNTLYLQMNSLRAEDTAVYFCAKDKILWFGEPVFDYWGQGTLVTVSS
VL: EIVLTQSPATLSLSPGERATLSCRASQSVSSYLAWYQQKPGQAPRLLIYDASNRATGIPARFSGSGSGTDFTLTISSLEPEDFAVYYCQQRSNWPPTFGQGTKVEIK
EC50 [3]: 0.151 µg/mL | EC50 [12]: 0.176 µg/mL | EC50 [7]: 0.0509 µg/mL | ADCC EC50, Daudi target cells with NK92MI-CD16a effector cells (LDH release) [8]: 0.0046 µg/mL | ADCC EC50, RPMI8226 target cells with NK92MI-CD16a effector cells (LDH release) [8]: 0.00494 µg/mL | ADCC EC50, Raji target cells with NK92MI-CD16a effector cells (LDH release) [8]: 0.017 µg/mL | ADCC EC50, Ramos target cells with NK92MI-CD16a effector cells (LDH release) [8]: 0.00301 µg/mL | EC50 [9]: 0.0951 µg/mL | EC50 [10]: 0.0493 µg/mL

B5: SG003M1 antibody (antibody, human IgG1, kappa, V domains shown)
VH: B1 VH with F27Y, D28N, W33Y, N52Q, D54E, N59Q, A102G, T103S
VL: B1 VL with T20S, S27N, F34Y, L58I, E59Q, E97Q, F100S
notes: as for B2
Kd [13]: 239 pM | koff [13]: 0.000636 s⁻¹ | kon [13]: 2.66e+06 M⁻¹ s⁻¹ | EC50 [11]: 0.0157 µg/mL
